# In article PMC4422728:
# Target: β-amyloid (Aβ) protein from brains of rTg9191 mice (human)
# Assay: SDS-PAGE and Western blot under denaturing conditions; water-soluble fraction of brain extracts (three-step protocol); samples heated at 95°C with SDS and β-mercaptoethanol, 10-20% Tris-Tricine gels, immunoblot for Aβ; mice of 4, 12, 21, 24 and 26 months
substance,measurement,value
β-amyloid (Aβ) protein from brains of rTg9191 mice (peptide),stoichiometry N,2
